Laboratory results from US20260132182A1 (published 2026).
Starred links: 1 amine or outer side, 2 acyl side, 3 side chain; linkers in the order of their positions; H or OH if unused. Non-standard residues stand in square brackets, D forms with d. Groups on a side chain read outwards from the residue. *: point of attachment. Undecanoyl(11-OPh(4-COOH)) = O=C(O)c1ccc(OCCCCCCCCCCC(=O)*)cc1; Decanoyl(10-(4-HOOC-PhO)) = O=C(O)c1ccc(OCCCCCCCCCC(=O)*)cc1; Decanoyl(10-O(3-COOH-Ph)) = O=C(O)c1cccc(OCCCCCCCCCC(=O)*)c1; C20 diacid = O=C(O)CCCCCCCCCCCCCCCCCCC(=O)*; C18 diacid = O=C(O)CCCCCCCCCCCCCCCCC(=O)*; C16 diacid = O=C(O)CCCCCCCCCCCCCCC(=O)*; γGlu = O=C(O)[C@H](CCC(=O)[*:2])N[*:1]; Trx = NC[C@H]1CC[C@H](C(=O)O)CC1; AEEA = NCCOCCOCC(=O)O; Aib = CC(C)(N)C(=O)O

T1: human amylin-3 (a) receptor (human, UniProt P30988 25-474; O60896 24-148)
T1 sequence (looked up) 1: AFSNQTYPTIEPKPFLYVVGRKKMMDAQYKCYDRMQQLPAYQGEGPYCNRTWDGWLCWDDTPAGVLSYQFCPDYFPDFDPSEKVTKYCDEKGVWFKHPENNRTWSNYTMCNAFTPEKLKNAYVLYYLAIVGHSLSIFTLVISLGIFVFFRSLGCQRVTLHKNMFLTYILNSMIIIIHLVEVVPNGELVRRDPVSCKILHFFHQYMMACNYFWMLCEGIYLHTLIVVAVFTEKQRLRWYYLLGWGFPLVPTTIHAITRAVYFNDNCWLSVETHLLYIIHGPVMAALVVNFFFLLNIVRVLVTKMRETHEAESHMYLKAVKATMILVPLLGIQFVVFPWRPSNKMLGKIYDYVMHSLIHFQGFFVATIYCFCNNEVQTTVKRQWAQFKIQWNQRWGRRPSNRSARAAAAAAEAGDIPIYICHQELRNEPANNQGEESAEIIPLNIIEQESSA
T1 sequence (looked up) 2: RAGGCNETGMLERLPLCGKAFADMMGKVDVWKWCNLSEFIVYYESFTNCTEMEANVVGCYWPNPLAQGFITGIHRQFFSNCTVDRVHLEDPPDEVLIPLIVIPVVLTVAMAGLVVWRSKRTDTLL

B1: Compound 0265 (peptide)
peptide: H[Aib]EGTFTSDVSSYLEEK([AEEA-AEEA-γGlu-Trx-C20 diacid])AAREFIAWLVRGRGGGGEASELSTAALGRLSAELHELATLPRTETGSGSP-NH2
B2: Compound 0284 (peptide)
peptide: H[Aib]EGTFTSDVSSYLEEQAAREFIAWLVRGK([AEEA-AEEA-γGlu-C16 diacid])GGGGGEASELSTAALGRLSAELHELATLK([AEEA-AEEA-γGlu-C16 diacid])RTETGSGSP-NH2
B3: Compound 0234 (peptide)
peptide: HWEGTFTSDVSSYLEEQAAREFIEWLVRGK([AEEA-AEEA-γGlu-Decanoyl(10-(4-HOOC-PhO))])GEGGGGGASELSTAALGRLSAELHELK([AEEA-AEEA-γGlu-Decanoyl(10-(4-HOOC-PhO))])TLPRTETGSGSP-NH2
B4: Compound 0273 (peptide)
peptide: HWEGTFTSDK([AEEA-AEEA-γGlu-C18 diacid])SSYLEEQAAREFIEWLVRGRGEASELSTAALGRLSAELHELATLPRTETGSGSP-NH2
B5: Compound 0272 (peptide)
peptide: HWEGTFTSDK([AEEA-AEEA-γGlu-Trx-C20 diacid])SSYLEEQAAREFIEWLVRGRGEASELSTAALGRLSAELHELATLPRTETGSGSP-NH2
B6: Compound 0261 (peptide)
peptide: H[Aib]EGTFTSDK([AEEA-AEEA-γGlu-C16 diacid])SSYLEEQAAREFIAWLVRGRGGGGGEASELSTAALGRLSAELHELATLK([AEEA-AEEA-γGlu-C16 diacid])RTETGSGSP-NH2
B7: Compound 0042 (peptide)
peptide: H[Aib]EGTFTSDVSSYLEGQAAKEFIAWLVRGRK([AEEA-AEEA-γGlu-C18 diacid])GGEASELSTAALGRLSAELHELATLPRTETGSGSP-NH2
B8: Compound 0040 (peptide)
peptide: H[Aib]EGTFTSDVSSYLEGQAAK([AEEA-AEEA-γGlu-C18 diacid])EFIAWLVRGRGGGGEASELSTAALGRLSAELHELATLPRTETGSGSP-NH2
B9: Compound 0233 (peptide)
peptide: HWEGTFTSDVSSYLEEQAAREFIEWLVRGK([AEEA-AEEA-γGlu-Decanoyl(10-(4-HOOC-PhO))])GEGGGGGASELSTAALGRLSK([AEEA-AEEA-γGlu-Decanoyl(10-(4-HOOC-PhO))])ELHELATLPRTETGSGSP-NH2
B10: Compound 0264 (peptide)
peptide: H[Aib]EGTFTSDVSSYLEEQAAREFIAWLVRGK([AEEA-AEEA-γGlu-Trx-C20 diacid])GGGGEASELSTAALGRLSAELHELATLPRTETGSGSP-NH2
B11: Compound 0281 (peptide)
peptide: H[Aib]EGTFTSDVSSYLEEQAAREFIAWLVRGK([AEEA-AEEA-γGlu-C16 diacid])GGGGGEASELSTAALGRLSAELHELK([AEEA-AEEA-γGlu-C16 diacid])TLPRTETGSGSP-NH2
B12: Compound 0254 (peptide)
peptide: HWEGTFTSDVSSYLEEQAARK([AEEA-AEEA-γGlu-Trx-C20 diacid])FIEWLVRGRGEGGGGGASELSTAALGRLSAELHELATLPRTETGSGSP-NH2
B13: Compound 0255 (peptide)
peptide: HWEGTFTSDVSSYLEEQAARK([AEEA-AEEA-γGlu-Undecanoyl(11-OPh(4-COOH))])FIEWLVRGRGEGGGGGASELSTAALGRLSK([AEEA-AEEA-γGlu-Undecanoyl(11-OPh(4-COOH))])ELHELATLPRTETGSGSP-NH2
B14: Compound 0269 (peptide)
peptide: HWEGTFTSDVSSYLEEQAAREFIEWLVRGRK([AEEA-AEEA-γGlu-Trx-C20 diacid])GGGGEASELSTAALGRLSAELHELATLPRTETGSGSP-NH2
B15: Compound 0280 (peptide)
peptide: H[Aib]EGTFTSDVSSYLEEQAAREFIAWLVRGK([AEEA-AEEA-γGlu-C16 diacid])GGGGGEASELSTAALGRLSAELHK([AEEA-AEEA-γGlu-C16 diacid])LATLPRTETGSGSP-NH2
B16: Compound 0232 (peptide)
peptide: HWEGTFTSDVSSYLEEQAARK([AEEA-AEEA-γGlu-Decanoyl(10-(4-HOOC-PhO))])FIEWLVRGRGEGGGGGASELSTAALGRLSAELHELK([AEEA-AEEA-γGlu-Decanoyl(10-(4-HOOC-PhO))])TLPRTETGSGSP-NH2
B17: Compound 0271 (peptide)
peptide: HWEGTFTSDVSSYLEEK([AEEA-AEEA-γGlu-C18 diacid])AAREFIEWLVRGRGEASELSTAALGRLSAELHELATLPRTETGSGSP-NH2
B18: Compound 0231 (peptide)
peptide: HWEGTFTSDVSSYLEEQAARK([AEEA-AEEA-γGlu-Decanoyl(10-(4-HOOC-PhO))])FIEWLVRGRGEGGGGGASELSTAALGRLSK([AEEA-AEEA-γGlu-Decanoyl(10-(4-HOOC-PhO))])ELHELATLPRTETGSGSP-NH2
B19: Compound 0260 (peptide)
peptide: H[Aib]EGTFTSDK([AEEA-AEEA-γGlu-C16 diacid])SSYLEEQAAREFIAWLVRGRGGGGGEASELSTAALGRLSAELHELK([AEEA-AEEA-γGlu-C16 diacid])TLPRTETGSGSP-NH2
B20: Compound 0267 (peptide)
peptide: HWEGTFTSDVSSYLEEQAAREFIEWLVRGK([AEEA-AEEA-γGlu-Trx-C20 diacid])GEASELSTAALGRLSAELHELATLPRTETGSGSP-NH2
B21: Compound 0266 (peptide)
peptide: H[Aib]EGTFTSDK([AEEA-AEEA-γGlu-Trx-C20 diacid])SSYLEEQAAREFIAWLVRGRGGGGEASELSTAALGRLSAELHELATLPRTETGSGSP-NH2
B22: Compound 0259 (peptide)
peptide: H[Aib]EGTFTSDK([AEEA-AEEA-γGlu-C16 diacid])SSYLEEQAAREFIAWLVRGRGGGGGEASELSTAALGRLSAELHK([AEEA-AEEA-γGlu-C16 diacid])LATLPRTETGSGSP-NH2
B23: Compound 0235 (peptide)
peptide: H[Aib]EGTFTSDVSSYLEEQAAREFIAWLVRGK([AEEA-AEEA-γGlu-Decanoyl(10-O(3-COOH-Ph))])K([AEEA-AEEA-γGlu-Decanoyl(10-O(3-COOH-Ph))])GGGGASELSTAALGRLSAELHELATLPRTETGSGSP-NH2
B24: Compound 0270 (peptide)
peptide: HWEGTFTSDVSSYLEEK([AEEA-AEEA-γGlu-Trx-C20 diacid])AAREFIEWLVRGRGEASELSTAALGRLSAELHELATLPRTETGSGSP-NH2
B25: Compound 0268 (peptide)
peptide: HWEGTFTSDVSSYLEEQAAREFIAWLVRGRK([AEEA-AEEA-γGlu-Trx-C20 diacid])GGGGEASELSTAALGRLSAELHELATLPRTETGSGSP-NH2
B26: Compound 0263 (peptide)
peptide: H[Aib]EGTFTSDVSSYLEEQAAREFIAWLVRGRK([AEEA-AEEA-γGlu-Trx-C20 diacid])EASELSTAALGRLSAELHELATLPRTETGSGSP-NH2

Experiments:
[1] = molecular target: T1, human amylin-3 (a) receptor; assay: cell-based or functional assay
human GLP-1 receptor = human GLP-1 receptor (human, UniProt P43220 24-463); assay: cell-based or functional assay

Row | Binder | Human AmyR3 potency [EC50 (pM)] [1] [pM] | Human GLP-1R potency [EC50 (pM)] (human GLP-1 receptor) [pM]
1 | B1 | 8.1 | 6
2 | B2 | 32.8 | 41.7
3 | B3 | 38.4 | 38.9
4 | B4 | 18 | 24.9
5 | B5 | 11.3 | 9.2
6 | B6 | 23.9 | 17.4
7 | B7 | 10.8 | 16.2
8 | B8 | 7.7 | 20.7
9 | B9 | 182 | 46.4
10 | B10 | 11.7 | 6.5
11 | B11 | 114 | 35.2
12 | B12 | 7.7 | 8.9
13 | B13 | 28.6 | 2.5
14 | B14 | 7.5 | 7.7
15 | B15 | 18 | 34.3
16 | B16 | 74.2 | 6.4
17 | B17 | 15.2 | 4.6
18 | B18 | 68 | 5.6
19 | B19 | 41.8 | 11.9
20 | B20 | 45.3 | 28.5
21 | B21 | 8.5 | 6.3
22 | B22 | 12 | 15.8
23 | B23 | 24 | 10.4
24 | B24 | 8.6 | 6.3
25 | B25 | 14.4 | 26.4
26 | B26 | 25.2 | 13.8
